Where two headings read alike, the source gives them in different places.

One may read the Kd as the free concentration of one partner at which half of the binding sites on the other are occupied at equilibrium, for simple one-to-one binding.

Assay [1] concerns the target T1, DAXX helical bundle (DHB) domain, DAXX_(55–144) (UniProt Q9UER7 55-144).
T1 chain: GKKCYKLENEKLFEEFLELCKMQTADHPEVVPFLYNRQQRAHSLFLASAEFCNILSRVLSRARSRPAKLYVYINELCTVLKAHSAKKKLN
The assay is described as follows: ITC. Background: ITC needs no label: the signal is the heat of the interaction.

Assay [2] has as its target T2, ATRX_(1,188–1,326) (UniProt P46100 1188-1326).
T2 construct: Alpha-thalassemia/mental retardation syndrome X-linked protein (ATRX), residues 1188-1326
T2 sequence (looked up): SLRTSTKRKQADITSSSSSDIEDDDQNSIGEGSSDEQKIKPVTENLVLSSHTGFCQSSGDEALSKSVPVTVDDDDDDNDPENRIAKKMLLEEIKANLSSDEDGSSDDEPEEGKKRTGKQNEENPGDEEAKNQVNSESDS
The experiment in a line: ITC; isothermal titration calorimetry of ATRX fragments with DAXXDHB; conditions not shown (methods in the supplement). The settings on record: both partners purified.

The target in assay [3] is T3, DAXX F87A (Homo sapiens).
T3 chain: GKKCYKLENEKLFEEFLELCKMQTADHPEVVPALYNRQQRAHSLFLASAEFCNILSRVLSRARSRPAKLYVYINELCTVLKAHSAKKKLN
The experiment in a line: ITC.

Assay [4] has as its target T4, DAXX V84A (Homo sapiens).
T4 chain: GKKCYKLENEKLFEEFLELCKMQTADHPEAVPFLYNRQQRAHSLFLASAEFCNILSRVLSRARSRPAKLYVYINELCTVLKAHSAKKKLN
The assay is described as follows: ITC.

For assay [5], the target named is T5, DAXX V125A (Homo sapiens).
T5 chain: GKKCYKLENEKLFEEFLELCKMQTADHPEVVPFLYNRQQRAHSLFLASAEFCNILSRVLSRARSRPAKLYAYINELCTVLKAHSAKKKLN
The assay is described as follows: ITC.

For assay [6], the target named is T6, DAXX Y124A (Homo sapiens).
T6 chain: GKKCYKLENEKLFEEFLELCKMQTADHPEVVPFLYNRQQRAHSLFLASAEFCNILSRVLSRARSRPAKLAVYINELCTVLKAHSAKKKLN
The assay is described as follows: ITC.

Assay [7] addresses T7, DAXX I127A (Homo sapiens).
T7 chain: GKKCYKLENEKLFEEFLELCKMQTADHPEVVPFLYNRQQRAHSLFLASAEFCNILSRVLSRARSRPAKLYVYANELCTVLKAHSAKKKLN
The experiment in a line: ITC.

Assay [8] has as its target T1, DAXX helical bundle (DHB) domain, …. The experiment in a line: ITC.
Assay [9] has as its target DAXX helical bundle (DHB) domain, DAXX_(55–144) (UniProt Q9UER7). The assay is described as follows: ITC; isothermal titration calorimetry of ATRX fragments with DAXXDHB; conditions not shown (methods in the supplement).

On to AAAAANDPENRIAKKMLLEEIKANLSSDED [ATRX 1,260–1,289 M1 (D1260A/D1261A/D1262A/D1263A/D1264A)], for which the dissociation constant (Kd) in assay [1] was 850 nM.

B1: DAXX helical bundle (DHB) domain, DAXX_(55–144) (domain or fragment, UniProt Q9UER7 55-144, looked up)
chain: GKKCYKLENEKLFEEFLELCKMQTADHPEVVPFLYNRQQRAHSLFLASAEFCNILSRVLSRARSRPAKLYVYINELCTVLKAHSAKKKLN
notes: death-domain associated protein (DAXX), N-terminal DAXX helical bundle (DHB) domain; model of the crystal covers residues 57-141; Limits 55-144 are printed for the mutagenesis panel; Crystals were selenomethionine-substituted; also called DAXXDHB; DAXX DHB
With B1, in [2], the affinity, expressed as Kd, was 160 nM.
Turning to DDDDDNDPENRIAKKMLLEEIKANLSSDED (domain or fragment) [DAXX-binding motif of ATRX, ATRX_(1,260–1,289)], binding in [1] was characterised by a dissociation constant (Kd) of 160 nM.
Molecule DDDDDNAPANRIAKKMLLEEIKANLSSDED [ATRX 1,260–1,289 M2 (D1266A/E1268A)] had an equilibrium dissociation constant (Kd) in assay [1] of 1750 nM.

B2: ATRX_(1,253–1,326) (domain or fragment)
chain: SVPVTVDDDDDDNDPENRIAKKMLLEEIKANLSSDEDGSSDDEPEEGKKRTGKQNEENPGDEEAKNQVNSESDS
Take B2: the dissociation constant Kd came out at 2190 nM in assay [3]; 2040 nM in assay [4]; 280 nM in assay [5]; 5920 nM in assay [6]; 810 nM in assay [7]; 160 nM in assay [1]. The same molecule had a Kd in assay [8] of 170 nM.

B3: ATRX L1276A/I1280A (protein)
chain: SVPVTVDDDDDDNDPENRIAKKMALEEAKANLSSDEDGSSDDEPEEGKKRTGKQNEENPGDEEAKNQVNSESDS
The molecule B3 registered a Kd in [1] of 12000 nM. This counts as double-digit micromolar.

B4: ATRX I1280R (protein)
chain: SVPVTVDDDDDDNDPENRIAKKMLLEERKANLSSDEDGSSDDEPEEGKKRTGKQNEENPGDEEAKNQVNSESDS
The molecule B4 showed a dissociation constant Kd in assay [1] of 34800 nM.

B5: ATRX L1276R (protein)
chain: SVPVTVDDDDDDNDPENRIAKKMRLEEIKANLSSDEDGSSDDEPEEGKKRTGKQNEENPGDEEAKNQVNSESDS
As for B5, in assay [1], the Kd worked out at 73500 nM.

B6: ATRX A1272R (protein)
chain: SVPVTVDDDDDDNDPENRIRKKMLLEEIKANLSSDEDGSSDDEPEEGKKRTGKQNEENPGDEEAKNQVNSESDS
Turning to B6, the Kd in assay [1] stood at 1040 nM. Compared with the last molecule, the Kd is about 71-fold lower.

B7: ATRX L1276A (protein)
chain: SVPVTVDDDDDDNDPENRIAKKMALEEIKANLSSDEDGSSDDEPEEGKKRTGKQNEENPGDEEAKNQVNSESDS
For the molecule B7, the equilibrium dissociation constant (Kd) in assay [1] was 8330 nM.

B8: ATRX I1280Q (protein)
chain: SVPVTVDDDDDDNDPENRIAKKMLLEEQKANLSSDEDGSSDDEPEEGKKRTGKQNEENPGDEEAKNQVNSESDS
Regarding B8, the affinity in assay [1], expressed as Kd, was 7350 nM.

B9: ATRX I1280A (protein)
chain: SVPVTVDDDDDDNDPENRIAKKMLLEEAKANLSSDEDGSSDDEPEEGKKRTGKQNEENPGDEEAKNQVNSESDS
In [1], B9 showed a Kd of 400 nM.

B10: ATRX L1276Q (protein)
chain: SVPVTVDDDDDDNDPENRIAKKMQLEEIKANLSSDEDGSSDDEPEEGKKRTGKQNEENPGDEEAKNQVNSESDS
Molecule B10 registered a Kd in assay [1] of 43300 nM.

B11: ATRX L1277R (protein)
chain: SVPVTVDDDDDDNDPENRIAKKMLREEIKANLSSDEDGSSDDEPEEGKKRTGKQNEENPGDEEAKNQVNSESDS
In turn, B11 gave a Kd in assay [1] of 970 nM.
In assay [1], ENRIAKKMLLEEIKANLSSDED (domain or fragment) [ATRXDBM with deletion of N-terminal eight residues] registered a Kd of 10300 nM. In addition, the fold decrease in affinity against ATRXDBM in [9] stood at 60 fold.

For the origin of these results see paper PMC5636753, “Structural basis for DAXX interaction with ATRX” (Protein & Cell, 2017).
